Assay results reported in article PMC8117407 (Science (New York, N.Y.), 2020).

Target: the molecule itself
Experiment: dual-colour single-molecule co-tracking

B1: mXFP-EpoR coexpressed with JAK2 V617F-mEGFP (complex)
chain 1: APPPNLPDPKFESKAALLAARGPEELLCFTERLEDLVCFWEEAASAGVGPGNYSFSYQLEDEPWKLCRLHQAPTARGAVRFWCSLPTADTSSFVPLELRVTAASGAPRYHRVIHINEVVLLDAPVGLVARLADESGHVVLRWLPPPETPMTSHIRYEVDVSAGNGAGSVQRVEILEGRTECVLSNLRGRTRYTFAVRARMAEPSFGGFWSAWSEPVSLLTPSDLDPLILTLSLILVVILVLLTVLALLSHRRALKQKIWPGIPSPESEFEGLFTTHKGNFQLWLYQNDGCLWWSPCTPFTEDPPASLEVLSERCWGTMQAVEPGTDDEGPLLEPVGSEHAQDTYLVLDKWLLPRNPPSEDLPGPGGSVDIVAMDEGSEASSCSSALASKPSPEGASAASFEYTILDPSSQLLRPWTLCPELPPTPPHLKYLYLVVSDSGISTDYSSGDSQGAQGGLSDGPYSNPYENSLIPAAEPLPPSYVACS
chain 2: MGMACLTMTEMEGTSTSSIYQNGDISGNANSMKQIDPVLQVYLYHSLGKSEADYLTFPSGEYVAEEICIAASKACGITPVYHNMFALMSETERIWYPPNHVFHIDESTRHNVLYRIRFYFPRWYCSGSNRAYRHGISRGAEAPLLDDFVMSYLFAQWRHDFVHGWIKVPVTHETQEECLGMAVLDMMRIAKENDQTPLAIYNSISYKTFLPKCIRAKIQDYHILTRKRIRYRFRRFIQQFSQCKATARNLKLKYLINLETLQSAFYTEKFEVKEPGSGPSGEEIFATIIITGNGGIQWSRGKHKESETLTEQDLQLYCDFPNIIDVSIKQANQEGSNESRVVTIHKQDGKNLEIELSSLREALSFVSLIDGYYRLTADAHHYLCKEVAPPAVLENIQSNCHGPISMDFAISKLKKAGNQTGLYVLRCSPKDFNKYFLTFAVERENVIEYKHCLITKNENEEYNLSGTKKNFSSLKDLLNCYQMETVRSDNIIFQFTKCCPPKPKDKSNLLVFRTNGVSDVPTSPTLQRPTHMNQMVFHKIRNEDLIFNESLGQGTFTKIFKGVRREVGDYGQLHETEVLLKVLDKAHRNYSESFFEAASMMSKLSHKHLVLNYGVCFCGDENILVQEFVKFGSLDTYLKKNKNCINILWKLEVAKQLAWAMHFLEENTLIHGNVCAKNILLIREEDRKTGNPPFIKLSDPGISITVLPKDILQERIPWVPPECIENPKNLNLATDKWSFGTTLWEICSGGDKPLSALDSQRKLQFYEDRHQLPAPKWAELANLINNCMDYEPDFRPSFRAIIRDLNSLFTPDYELLTENDMLPNMRIGALGFSGAFEDRDPTQFEERHLKFLQQLGKGNFGSVEMCRYDPLQDNTGEVVAVKKLQHSTEEHLRDFEREIEILKSLQHDNIVKYKGVCYSAGRRNLKLIMEYLPYGSLRDYLQKHKERIDHIKLLQYTSQICKGMEYLGTKRYIHRDLATRNILVENENRVKIGDFGLTKVLPQDKEYYKVKEPGESPIFWYAPESLTESKFSVASDVWSFGVVLYELFTYIEKSKSPPAEFMRMIGNDKQGQMIVFHLIELLKNNGRLPRPDGCPDEIYMIMTECWNNNVNQRPSFRDLALRVDQIRDNMAG
With B1 the “ligand-independent dimerization relative to ligand-induced dimerization” value was about 25%.

B2: mXFP-GHR coexpressed with JAK2 V617F-mEGFP (complex)
chain 1: FSGSEATAAILSRAPWSLQSVNPGLKTNSSKEPKFTKCRSPERETFSCHWTDEVHHGTKNLGPIQLFYTRRNTQEWTQEWKECPDYVSAGENSCYFNSSFTSIWIPYCIKLTSNGGTVDEKCFSVDEIVQPDPPIALNWTLLNVSLTGIHADIQVRWEAPRNADIQKGWMVLEYELQYKEVNETKWKMMDPILTTSVPVYSLKVDKEYEVRVRSKQRNSGNYGEFSEVLYVTLPQMSQFTCEEDFYFPWLLIIIFGIFGLTVMLFVFLFSKQQRIKMLILPPVPVPKIKGIDPDLLKEGKLEEVNTILAIHDSYKPEFHSDDSWVEFIELDIDEPDEKTEESDTDRLLSSDHEKSHSNLGVKDGDSGRTSCCEPDILETDFNANDIHEGTSEVAQPQRLKGEADLLCLDQKNQNNSPYHDACPATQQPSVIQAEKNKPQPLPTEGAESTHQAAHIQLSNPSSLSNIDFYAQVSDITPAGSVVLSPGQKNKAGMSQCDMHPEMVSLCQENFLMDNAYFCEADAKKCIPVAPHIKVESHIQPSLNQEDIYITTESLTTAAGRPGTGEHVPGSEMPVPDYTSIHIVQSPQGLILNATALPLPDKEFLSSCGYVSTDQLNKIMP
chain 2: B1 chain 2
B2 was tested, and the “ligand-independent dimerization relative to ligand-induced dimerization” value was about 10%.
